In the RNAGym collection of RNA variant scans (doi:10.7554/elife.80360):

B1: Hairpin Ribozyme (parent)
chain: GUCCUCUUUCACGUGCGCGUGAAAGAGAGAAGUGAACCAGAGAAACACACGUUGUGGUAUAUUACCUGGUA

Variants of: B1
Assay: self-cleavage, relative activity (ratio to wild type); higher = more cleavage; co-transcriptional

Variant | self-cleavage
U5C U63A | 0.104
C6A A61C | 0.225
C6A A23C | 0.52
C6A A23U | 0.503
C6A C37G | 0.287
U5G G32U | 0.132
U5G G32A | 0.0653
U5G A36U | 0.0604
U5C C65G | 0.0463
U5G U14A | 0.204
U5G U14C | 0.383
U5G U14G | 0.152
U5G A49C | 0.205
U5G A49G | 0.109
U5C G27A | 0.247
U5G C18U | 0.243
C6A A41C | 0.873
C6A A41U | 0.919
U5C U8A | 0.197
U5C U8C | 0.313
U5G U55A | 0.139
U5G U55C | 0.121
U5G A26C | 0.68
U5G G69A | 0.0952

Variant | self-cleavage
U5G G69U | 0.247
U5G G69C | 0.104
U5C U60A | 0.392
U5G G17A | 0.362
U5G G17U | 0.177
C6A A30U | 0.0998
U5C C50G | 0.147
U5C C48U | 0.0847
U5C C48G | 0.0712
U5G A64G | 0.177
U5G A64C | 0.155
C6A C46U | 0.171
C6A C46A | 0.119
U5G A61G | 0.0248
C6A G25U | 0.763
C6A G25C | 0.64
U5G G13C | 0.276
U5G G13U | 0.361
U5G U62G | 0.145
C6A C12A | 0.52
U5G G40A | 0.0651
U5C G29C | 0.205
U5C G29U | 0.114
C6A C18A | 0.649

Variant | self-cleavage
C6A C18U | 0.708
C6A C18G | 0.43
U5G G57C | 0.0591
C6A G51C | 0.531
C6A C38A | 0.141
C6A G17C | 0.424
C6A A39C | 0.436
C6A U9A | 0.417
C6A U9C | 0.262
C6A A64C | 0.148
C6A A64U | 0.163
U5C U55A | 0.21
U5C U55C | 0.2
U5G U7A | 0.2
U5C G68A | 0.14
U5C G68U | 0.127
C6A G42U | 0.223
C6A A45U | 0.179
U5G C66U | 0.223
U5G U52A | 0.444
U5G U63C | 0.116
U5C G13U | 0.579
U5C G13A | 0.591
U5G U33G | 0.0612

Variant | self-cleavage
U5G A59C | 0.13
U5G A59G | 0.0492
U5G G29U | 0.168
U5C G57U | 0.138
U5C U67A | 0.0797
U5C U9C | 0.457
U5C G32U | 0.132
U5C G32C | 0.0586
U5C C66A | 0.143
C6A A49U | 0.162
U5G A47C | 0.102
C6A G34U | 1
U5G C16A | 0.435
C6A A24C | 0.445
U5G U9C | 0.197
U5G G27U | 0.0644
U5G G27A | 0.216
U5C U52G | 0.608
U5C U52C | 0.636
U5C C46A | 0.139
C6A C66U | 0.247
C6A C66G | 0.109
C6A C66A | 0.198
C6A G21A | 0.6

Variant | self-cleavage
C6A G21U | 0.542
C6A G13C | 0.341
C6A A11G | 0.635
U5C G17C | 0.339
U5C U7C | 0.303
U5G C12A | 0.124
U5G G19U | 0.274
U5G G19A | 0.243
C6A A43C | 0.197
C6A A43G | 0.223
U5G G25C | 0.214
U5G A24C | 0.273
U5C G69C | 0.0944
C6A U7G | 0.447
C6A U7A | 0.648
U5G U20C | 0.337
U5C G51U | 0.704
U5C G51C | 0.732
U5C U53A | 0.535
U5C U53C | 0.317
U5C U20G | 0.508
U5C U20C | 0.673
C6A C48A | 0.084
C6A C48G | 0.121

Variant | self-cleavage
C6A G68C | 0.13
C6A G68U | 0.181
C6A G29C | 0.123
C6A C16G | 0.351
C6A C16U | 0.659
U5G G68C | 0
U5G G68U | 0.156
U5G G21U | 0.324
C6A A44C | 0.0999
C6A A44G | 0.113
C6A A44U | 0.167
C6A A71G | 0.606
U5G A71U | 0.306
U5G A22G | 0.251
C6A A47G | 0.157
C6A A22C | 0.541
C6A A22U | 0.352
C6A C65A | 0.492
C6A G69A | 0.23
U5C U14A | 0.428
U5G G15C | 0.249
U5G G15U | 0.431
C6A A28C | 0.233
U5C C38G | 0.115

Variant | self-cleavage
C6A U8C | 0.344
C6A G15C | 0.586
C6A G15U | 0.582
C6A G19C | 0.55
U5G C10A | 0.235
U5G C10G | 0.164
U5C G25A | 0.265
U5G A45C | 0.122
U5G A45U | 0.0709
C6A G27U | 0.121
C6A G27A | 0.126
U5C U58G | 0.318
U5G C38U | 0.195
U5G C38G | 0.133
C6A C10U | 0.371
U5G U67G | 0.164
U5G U53G | 0.179
U5G U53A | 0.455
C6A U20A | 0.551
U5G U58A | 0.272
U5G U58C | 0.25
U5C U62C | 0.0289
C6A U14C | 0.579
